In paper doi:10.1101/2025.03.14.642698 one finds Ldo co-immunoprecipitation compared to Ldb16 1-133 (% lower than 1-133) data, which are given here for two molecules.

In test [1] the target is Ldb16 (1-133 6A)-FLAG, genomically expressed (S. cerevisiae) (UniProt P25587). Put plainly: co-IP.
The target of test [2] is Ldb16 (1-133 ΔH)-FLAG, genomically expressed (S. cerevisiae) (UniProt P25587). Put plainly: co-IP.

B1: Ldo45-HA, endogenously tagged (natural protein)
chain: MAARNRRKNNKKKSLLVTSAAQEKNATYVLVAEELHKKTIDLNMGTETPLTENHENPIPAKEFKHQQKLEPIDEHDDGEDELSIKFKSMTKSSGPITEAEVQKLLLSYAFTSAAIQEDENEKESRHYPIKPPSPSASSLSAYFQSFVEKCKQVFYNFSLQTVEKLNALQNSLYEVFWIIFIYLNYWFPNVGDYVSNTFGQQDSIIIRISLSKSHFRALREKSSQKVQQAVKNIYFCFQEKPYLTAFKVSFAIGLVIPCSLLFLIMVSTATFFFFVYLTLFVVIGFFSSLFIIPLLGISFVFAIGVVSFGFCSNMSFKMAQLIYVRADAFLKKVLDKMALQTQPAQLQEPQEPLSTLRPVSNPTIPSPLRQTARPSKFVTEEDVIFEPVSAQSAIARSLETTANKAGNKFQLS
As for B1, the Ldo co-immunoprecipitation compared to Ldb16 1-133 (% lower than 1-133) in test [1] and in test [2] was 50 in each case.

B2: Ldo16-HA, endogenously tagged (natural protein)
chain: MVSTATFFFFVYLTLFVVIGFFSSLFIIPLLGISFVFAIGVVSFGFCSNMSFKMAQLIYVRADAFLKKVLDKMALQTQPAQLQEPQEPLSTLRPVSNPTIPSPLRQTARPSKFVTEEDVIFEPVSAQSAIARSLETTANKAGNKFQLS
On to B2, for which the Ldo co-immunoprecipitation compared to Ldb16 1-133 (% lower than 1-133) in test [1] and in test [2] was 50 each time.
